Among the data in publication PMC5630700 (2017) are EC50 values, retold here.

B1: sdAb B–Gaussia luciferase fusion (glucibody, pecan35) (VHH)
VHH: KVQLQESGGGLVQAGGSLRLSCAASGGTFSINTLGWYRRAPGKEREFVARISSGGITRYADSVKGRFTISRDNGKNTVYLDMNSLKPEDTAVYYCMYRNWGGGLDVYWGQGTQVTVSS
B2: sdAb C–Gaussia luciferase fusion (glucibody, pecan35) (VHH)
VHH: KVQLQESGGGLVQVGGSLRLSCKASGFTFRSSAMGWYRRAPGKQRELVASLTTTGTADYGDFVKGRFTISRDNAENTVDLHMNSLKPEDTAVYYCHEDPYGMESLRYWGQGTQVTVSS
B3: sdAb A–Gaussia luciferase fusion (glucibody, pecan35) (VHH)
VHH: EVKLQESGGGLVQAGESLRLSCAVPPEVFDIRTVAWYRQVPLGKGRELLSSITPWNKTTYEDSVKDRFTISRDNAKYTVYLQMNDLKPEDTAVYYCAQGWGIASMRYWGQGTQVTVSS

mbp-NP600 fusion protein, sequence (P27588 601-695): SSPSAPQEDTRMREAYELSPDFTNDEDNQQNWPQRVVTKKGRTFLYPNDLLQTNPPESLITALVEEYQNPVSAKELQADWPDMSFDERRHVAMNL

For the first test, the target named is purified recombinant MARV (Marburg Musoke) nucleoprotein polymer (Marburg virus Musoke, UniProt P27588 1-695). Briefly: ELISA.
purified recombinant MARV (Marburg Musoke) nucleoprotein polymer, sequence (P27588 whole entry): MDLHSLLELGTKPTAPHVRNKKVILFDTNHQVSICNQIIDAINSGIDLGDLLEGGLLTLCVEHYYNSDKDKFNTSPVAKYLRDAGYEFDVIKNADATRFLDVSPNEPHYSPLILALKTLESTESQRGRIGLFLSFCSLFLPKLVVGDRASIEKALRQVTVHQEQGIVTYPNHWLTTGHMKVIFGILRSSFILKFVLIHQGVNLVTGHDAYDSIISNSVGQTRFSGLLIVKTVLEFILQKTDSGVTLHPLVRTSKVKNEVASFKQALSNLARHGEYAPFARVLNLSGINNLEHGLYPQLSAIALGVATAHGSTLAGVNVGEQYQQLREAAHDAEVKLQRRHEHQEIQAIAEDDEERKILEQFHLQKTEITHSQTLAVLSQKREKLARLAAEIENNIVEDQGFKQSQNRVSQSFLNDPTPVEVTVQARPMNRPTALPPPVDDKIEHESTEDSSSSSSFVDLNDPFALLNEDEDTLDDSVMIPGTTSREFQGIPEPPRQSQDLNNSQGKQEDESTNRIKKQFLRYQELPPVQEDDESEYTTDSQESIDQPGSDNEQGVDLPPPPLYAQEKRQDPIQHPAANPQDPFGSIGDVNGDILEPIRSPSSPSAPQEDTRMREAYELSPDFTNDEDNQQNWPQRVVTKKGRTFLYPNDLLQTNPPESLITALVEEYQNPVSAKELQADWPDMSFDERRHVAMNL
As for B1, the EC50 was 10.8 nM.

Consider B2, for which the EC50 was determined as 4.1 nM.

As to B3, the EC50 was found to be 2.8 nM.

Another test concerns the target mbp-NP600 fusion protein (Marburg virus Musoke, UniProt P27588 601-695). Briefly: ELISA.
In turn, B1 registered an EC50 of 162 nM.

In turn, B2 yielded an EC50 of 11.9 nM.

For B3, the EC50 came out at 14.1 nM.
